Experimental data reported in patent US20170233495.

test system: All antibodies according to the invention, which were tested (Example 4)

Sequence of recombinant catalytic domain of human MMP2 (chain, as listed by the source): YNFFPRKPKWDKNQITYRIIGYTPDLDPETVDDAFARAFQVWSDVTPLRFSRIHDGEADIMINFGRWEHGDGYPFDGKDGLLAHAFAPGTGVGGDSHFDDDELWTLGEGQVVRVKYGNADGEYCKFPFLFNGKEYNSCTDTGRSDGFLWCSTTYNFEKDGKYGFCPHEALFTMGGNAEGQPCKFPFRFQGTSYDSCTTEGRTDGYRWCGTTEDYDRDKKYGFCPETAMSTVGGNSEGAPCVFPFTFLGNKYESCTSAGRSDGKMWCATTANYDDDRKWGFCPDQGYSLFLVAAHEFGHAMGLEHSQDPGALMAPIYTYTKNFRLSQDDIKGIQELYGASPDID
Sequence of recombinant catalytic domain of human MMP8 (chain, as listed by the source): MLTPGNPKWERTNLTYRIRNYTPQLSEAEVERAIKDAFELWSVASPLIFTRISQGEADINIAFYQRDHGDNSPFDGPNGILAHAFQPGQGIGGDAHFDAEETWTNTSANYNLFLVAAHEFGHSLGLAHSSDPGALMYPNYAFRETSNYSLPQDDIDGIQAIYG
Sequence of recombinant catalytic domain of human MMP19 (chain, as listed by the source): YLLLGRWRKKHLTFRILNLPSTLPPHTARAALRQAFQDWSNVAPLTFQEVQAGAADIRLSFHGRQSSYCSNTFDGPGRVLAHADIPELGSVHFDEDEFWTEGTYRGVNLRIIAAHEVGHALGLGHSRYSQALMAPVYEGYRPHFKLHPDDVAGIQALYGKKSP
Sequence of recombinant catalytic domain of human MMP3 (chain, as listed by the source): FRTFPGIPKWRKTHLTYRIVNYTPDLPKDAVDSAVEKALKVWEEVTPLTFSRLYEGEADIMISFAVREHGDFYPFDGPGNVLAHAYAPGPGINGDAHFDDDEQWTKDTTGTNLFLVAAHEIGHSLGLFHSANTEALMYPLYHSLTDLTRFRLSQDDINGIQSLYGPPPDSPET

Substance | cleavage of fluorogenic peptide OmniMMP RED by MMP catalytic domain, antibody at 100 nM
recombinant catalytic domain of human MMP2 | had no significant effect on the catalytic activity of the eight other human MMPs tested
recombinant catalytic domain of human MMP8 | had no significant effect on the catalytic activity of the eight other human MMPs tested
recombinant catalytic domain of human MMP19 | had no significant effect on the catalytic activity of the eight other human MMPs tested
recombinant catalytic domain of human MMP3 | had no significant effect on the catalytic activity of the eight other human MMPs tested
recombinant catalytic domain of human MMP13 | had no significant effect on the catalytic activity of the eight other human MMPs tested
